The values that follow come from paper PMC3974974.

What all share (assay): SPR; SIRPα variants immobilized via a biotin tag on a streptavidin-coated CM5 chip, BIAcore 3000, 37 °C; dilutions of soluble monomeric CD47 (0.05 to 25.7 μM) injected; KD from equilibrium binding; purification of the variants from 293T not told
Test [1] deals with SIRPα variant v1, three Ig superfamily domains linked to rat CD4d3 and -4 and a biotinylation sequence (human).
Test [2] deals with SIRPα variant v10, three Ig superfamily domains linked to rat CD4d3 and -4 and a biotinylation sequence (human).
Test [3] has as its target SIRPα variant v2, three Ig superfamily domains linked to rat CD4d3 and -4 and a biotinylation sequence (human).
Test [4] concerns the target SIRPα variant v5, three Ig superfamily domains linked to rat CD4d3 and -4 and a biotinylation sequence (human).
Test [5] concerns the target SIRPα variant v7, three Ig superfamily domains linked to rat CD4d3 and -4 and a biotinylation sequence (human).

SIRPα variant v7, three Ig superfamily domains linked to rat CD4d3 and -4 and a biotinylation sequence (human), sequence (P78324 31-504, stated change not applied): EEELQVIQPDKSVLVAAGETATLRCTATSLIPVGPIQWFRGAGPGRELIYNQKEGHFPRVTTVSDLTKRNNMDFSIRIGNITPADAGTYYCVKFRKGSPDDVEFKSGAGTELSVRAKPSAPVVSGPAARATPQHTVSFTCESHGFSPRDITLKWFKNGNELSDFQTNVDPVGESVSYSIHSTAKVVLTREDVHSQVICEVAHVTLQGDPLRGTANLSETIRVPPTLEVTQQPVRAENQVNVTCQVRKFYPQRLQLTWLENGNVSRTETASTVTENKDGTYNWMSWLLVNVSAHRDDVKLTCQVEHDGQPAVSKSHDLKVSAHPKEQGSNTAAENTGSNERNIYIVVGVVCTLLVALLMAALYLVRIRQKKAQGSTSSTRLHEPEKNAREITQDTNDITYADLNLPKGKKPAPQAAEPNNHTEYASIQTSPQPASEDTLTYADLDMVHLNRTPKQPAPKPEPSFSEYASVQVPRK
SIRPα variant v5, three Ig superfamily domains linked to rat CD4d3 and -4 and a biotinylation sequence (human), sequence (P78324 31-504, stated change not applied): as above

On to “Recombinant CD47 Ig superfamily domain (from UniProt Q08722 19-136) (domain or fragment)”, for which the Kd in test [1] came to 740 nM; in test [2], 670 nM; in test [3] it was 640 nM; in test [4], 780 nM; in test [5], 650 nM.
